Data reported in article PMC3675483 (Nucleic Acids Research, 2013).

Experiments:
[1] = target: Schmallenberg virus (SBV) nucleocapsid (N) protein (Schmallenberg virus); assay: crystal structure
[2] = target: Schmallenberg virus (SBV) nucleocapsid (N) protein (Schmallenberg virus); assay: SEC
[3] = target: Schmallenberg virus (SBV) nucleocapsid (N) protein (Schmallenberg virus); assay: negative-stain electron microscopy with single-particle averaging
[4] = target: Selenomethionine-substituted SBV N protein (Schmallenberg virus); assay: crystal structure
[5] = target: BUNV N (nucleocapsid) wild type (Bunyamwera virus, UniProt P16495 1-233); assay: fluorescence polarization
[6] = target: T1, SBV N (nucleocapsid) wild type (Schmallenberg virus isolate BH80/11-1, UniProt H2AM13 1-233); assay: fluorescence polarization
T1 sequence: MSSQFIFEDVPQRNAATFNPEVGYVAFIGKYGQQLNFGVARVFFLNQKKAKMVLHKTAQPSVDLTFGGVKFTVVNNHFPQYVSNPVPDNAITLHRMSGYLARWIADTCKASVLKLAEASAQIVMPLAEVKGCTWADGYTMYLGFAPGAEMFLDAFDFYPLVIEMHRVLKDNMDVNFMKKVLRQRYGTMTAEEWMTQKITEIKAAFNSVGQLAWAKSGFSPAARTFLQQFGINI

[7] = target: the molecule itself; assay: SEC

Schmallenberg virus (SBV) nucleocapsid (N) protein (natural protein)
stoichiometry N [1]: 4
stoichiometry N [2]: 4
stoichiometry N [3]: 4

Selenomethionine-substituted SBV N protein (natural protein)
stoichiometry N [4]: 4

AGUAGUGUACUCCACACUACAAACUUGCUAUUGUUGAAAAUCGCUGUG (ssRNA) [BUNV48AG]
Kd [5]: 62.9 ± 5 nM
Kd [6]: 21.3 ± 1 nM

B1: Bunyamwera virus (BUNV) nucleocapsid (N) protein (natural protein)
chain: MIELEFHDVAANTSSTFDPEVAYANFKRVHTTGLSYDHIRIFYIKGREIKTSLAKRSEWEVTLNLGGWKITVYNTNFPGNRNNPVPDDGLTLHRLSGFLARYLLEKMLKVSEPEKLIIKSKIINPLAEKNGITWNDGEEVYLSFFPGSEMFLGTFRFYPLAIGIYKVQRKEMEPKYLEKTMRQRYMGLEAATWTVSKLTEVQSALTVVSSLGWKKTNVSAAARDFLAKFGINM
stoichiometry N [7]: 4
